# ± gives the half width of the 95% confidence interval.
# How the values were obtained:
# [1] = folding stability dG unfold from chymotrypsin proteolysis; higher = more stable
# Experimental: (§1)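 Folding stability of de novo designed mini-proteins (<80 aa, no Cys; designed by TrROS, TrMRF, ProteinMPNN and the joint model) was measured by cDNA display proteolysis with trypsin and chymotrypsin. Each protease was used at 11 concentrations in a threefold dilution series plus a no-protease condition. K50 was inferred by Bayesian fitting of sequencing counts, and dG unfold was derived against a sequence-predicted unfolded-state K50 (Tsuboyama et al. method). Sequences shown include variable-length N-terminal GS-type padding (SAGGSAGG...) inside a display construct carrying a PA tag. Rows were kept only if the AF2 dimer inter-PAE was >15, to exclude likely homo-oligomers.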
# [2] = folding stability dG unfold (combined trypsin and chymotrypsin); higher = more stable
# Experimental: as §1
Sequence,folding stability dG unfold [1],folding stability dG unfold [2]
SAGGKKKKREIEIQIPVPDEEMKKNGMDPSEFAEELAKELQSLLPPGFEDIDLDVEPHPNGWPRIKIESAGG [r13_271_TrROS],-0.281 ± 0.043 kcal/mol,-0.724 ± 0.3 kcal/mol
SAGGKKTVEIPIWMPYDDAKNIAKEAVEEAAASNDNVTVTIEIWQWEPDPNGKPEWQPIGKAEIKVPPSAGG [r13_974_TrROS],-0.013 ± 0.064 kcal/mol,-0.43 ± 0.19 kcal/mol
SAGGKPKITITIEKLPDGTIRITITYEDGSKVEIEAKVTYDPKTNTLTIEVTIKINGKTYKITITFKSAGGS [r16_391_TrROS_Hall],4.4 ± 0.29 kcal/mol,4.35 ± 0.68 kcal/mol
SAGGKSKTIPIQPGDIRKVRDQLKELPDEGDNVRIHNPDNGKEREMDPDQLDDNVEKNGEPPTIHVRSAGGS [r16_263_TrROS],-0.528 ± 0.072 kcal/mol,< -1 kcal/mol
SAGGLVREAAAEAGATGVDIREEVPDPNGGTVVTVLPRPGLSPEEAAAVRARIEAAIAEREPGATVVLESAG [r5_101_JUSTAS],0.161 ± 0.029 kcal/mol,-0.142 ± 0.11 kcal/mol
SAGGMEEIRELLREGKIDEVVERLKELGYEDVKITPIPDKPVVKIEVVRYDPVTGKPTKFTLTIPLEPSAGG [r13_359_TrMRF],5.27 ± 0.11 kcal/mol,5.67 ± 0.32 kcal/mol
SAGGMILIERDGRERVLEKAREAVEAEAARARAGDVEDAVLLVDLRVVDPVTGEWEELPVLARVPPASAGGS [r8_163_TrMRF],0.461 ± 0.076 kcal/mol,-0.0473 ± 0.11 kcal/mol
SAGGMKIKIEITEIKKEGDTVYIKVKITITLPNGKVIKIEMTLRYNKETGKWEIVKIEKIEIFPLPESAGGS [r16_729_TrROS_Hall],5.3 ± 0.31 kcal/mol,5.46 ± 0.49 kcal/mol
SAGGMKITVTPSTDPNTPLTRETVTVPPTADPEAVAEKLRRAYPDGSTTTVTPRPDGTIVVTTTLPASAGGS [r8_255_JUSTAS],0.181 ± 0.083 kcal/mol,-0.291 ± 0.069 kcal/mol
SAGGMKTSPIGTFPLPDPSNGALADTVTIENPKEIIKKSNKEIVKVTVTTTAPDGTPTTTDEIIIIKNSAGG [r13_735_JUSTAS],0.548 ± 0.066 kcal/mol,0.148 ± 0.3 kcal/mol
SAGGMNSMRLTVEFPSPEQREEKLRQIVHKHGFTIKPKEVEPNPNGRMTHTIEINMPPKVRDAFKDLSAGGS [r8_357_TrROS],-0.152 ± 0.19 kcal/mol,-0.659 ± 0.14 kcal/mol
SAGGMPKKITKLELLSETYDPLTNTYTVTVRATFDDGTEKVIELTLPRSEYEKLSKEEIKKRAIDLLLSAGG [r13_512_JUSTAS],5.29 ± 0.12 kcal/mol,5.52 ± 0.34 kcal/mol
SAGGMSVEVDWGETTRRLTFYDESGNPVADAEEPVLDPLTGLSTSRGVSLEELARRAGVPVELPERRSAGGS [r16_778_JUSTAS],0.764 ± 0.025 kcal/mol,0.337 ± 0.058 kcal/mol
SAGGMTIEVPDGFRIDGFRPFPDGRSAVLVRYKGTGKVEIFPFGDRVPEASADEPVEVEVVPIPPELLSAGG [r13_173_TrMRF],0.155 ± 0.21 kcal/mol,-0.353 ± 0.14 kcal/mol
SAGGMTIPLEFEFESEEEAKEKAEEIAEELAKSFPEYEVEVKIEIKPVKDPNSDTTKWRVKMEITVGPSAGG [r13_545_JUSTAS],4.38 ± 0.2 kcal/mol,4.56 ± 0.31 kcal/mol
SAGGNIEIEIPIPKEDLKDNDFEEAKEYVREYVRMIAREQGLPPGFPIKDIDVQPHPNYYMVKIEIPSAGGS [r16_368_TrROS],0.868 ± 0.26 kcal/mol,0.401 ± 0.16 kcal/mol
SAGGNIKITDIEMEPMNMPRKNEDGKEKPRPMWQFKVRIRDDGKPIAEVPFTSMDDMRNAVKKLLKKSAGGS [r8_21_TrROS],-0.0964 ± 0.26 kcal/mol,-0.182 ± 0.39 kcal/mol
SAGGNIPPGETWKIKFPGKPIEIQMQQINGKPMYRLRDKNNKPHGTMTPDEADEFLDKLPPNWEIERYSAGG [r13_657_TrROS],-0.253 ± 0.37 kcal/mol,-0.353 ± 0.22 kcal/mol
SAGGPKVVKGKKVEKVELEVGKLPDGVELVKVKVRSKEVDKEFTFTFEPGQDLGEFGKATGFDIGVESAGGS [r16_676_TrMRF],0.552 ± 0.16 kcal/mol,0.14 ± 0.17 kcal/mol
SAGGSAGGEETLRVTEITDVEKPDNGPRIKFPIEHDGKKKPIDINVPPDDLKPGDTIPLEEILKSAGGSAGG [r6_585_TrROS],0.847 ± 0.072 kcal/mol,0.222 ± 0.15 kcal/mol
SAGGSAGGGPDLKVTDIEFDPETGEIRIRTEAGGKLVAEVTIKGAPPVPVYPDKDGNWYPAGAKSAGGSAGG [r6_832_TrMRF],0.986 ± 0.062 kcal/mol,0.517 ± 0.12 kcal/mol
